Source: FireProtDB (doi:10.1021/bi00250a032)
“And” between values parts separate entries of the source, which are not always exact repeats. Equal entries are not always repeated.

Conditions: Streptomyces sp. EC3, Thermal, DSC, reversible: yes
[1] = pH 7.5, Sodium phosphate 60 mM, transition: 3
[2] = pH 8.9, glycine-NaOH 60 mM, transition: 4

Chain of Endo-1,4-beta-xylanase wild type, Q56013 (Q56013 entry or part of it): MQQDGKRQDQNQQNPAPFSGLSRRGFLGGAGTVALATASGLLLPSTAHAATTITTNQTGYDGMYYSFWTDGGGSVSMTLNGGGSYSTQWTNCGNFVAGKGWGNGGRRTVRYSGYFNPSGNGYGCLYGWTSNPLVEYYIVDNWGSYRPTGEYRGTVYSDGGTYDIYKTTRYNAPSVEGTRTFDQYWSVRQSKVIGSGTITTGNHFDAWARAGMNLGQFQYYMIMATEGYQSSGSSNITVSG

In the case of “Endo-1,4-beta-xylanase wild type, Q56013”, the “unfolding enthalpy (calorimetric)” value (pH 3.6, Sodium phosphate 60 mM, transition: 4) is reported as 66 kcal/mol and 84 kcal/mol and 108 kcal/mol, the “unfolding enthalpy (calorimetric)” value (pH 4.1, Sodium phosphate 60 mM, transition: 3) is reported as 57 kcal/mol and 100 kcal/mol and the “unfolding enthalpy (calorimetric)” value (pH 6.3, Sodium phosphate 60 mM, transition: 4) is reported as 100 kcal/mol and 150 kcal/mol and 223 kcal/mol. For the same substance, the Tm [1] was 60.5 °C and 64 °C, the “unfolding enthalpy (calorimetric)” value [1] was 99 kcal/mol and 200 kcal/mol and the “unfolding enthalpy (calorimetric)” value (pH 7.5, Sodium phosphate 60 mM, transition: 4) was 93 kcal/mol and 137 kcal/mol and 187 kcal/mol. The “unfolding enthalpy (calorimetric)” value (pH 8.9, glycine-NaOH 60 mM, transition: 3) was 72 kcal/mol and 136 kcal/mol, the Tm [2] was 51.5 °C and 54.6 °C and the “unfolding enthalpy (calorimetric)” value [2] was 118 kcal/mol and 157 kcal/mol.
